In US20190376053A1 one finds Kd and Ratio data, which are given here for three substances.

Assay [1] concerns the target collagen fibril (porcine skin fiber, Nippi, Inc) (porcine). Nature of the assay: collagen fibril binding assay (spin column, SDS-PAGE of the unbound protein, Scatchard plot).
Assay [2] has as its target mini-collagen peptide H-Gly-Pro-Arg-Gly-(Pro-Hyp-Gly)12-NH2. Nature of the assay: SPR (Biacore), peptide immobilized, equilibrium fit, apparent KD. In general terms: SPR reads the build-up and loss of mass on a sensor chip optically.
For assay [3] the target is unchanged. The assay can be described thus: SPR (Biacore); ratio of KD, ColHS2bS3 = 1.00.

Substance “collagen-binding domain s3a derived from Clostridium histolyticum class I collagenase ColG (from UniProt Q9X721 886-1003)” displayed a Kd in assay [1] of 100 µM.
Turning to “tandem collagen-binding domain (s3a-s3b) derived from Clostridium histolyticum class I collagenase ColG (from UniProt Q9X721 886-1118)”, the Kd in assay [2] is 44.6 µM. In addition, the Ratio in assay [3] worked out at 0.1.
For “collagen-binding domain s3b derived from Clostridium histolyticum class I collagenase ColG (from UniProt Q9X721 1003-1118)”, in that order: 45.4 µM and 0.102.
